These are literature values, as cited in paper PMC9133541.

The term Kd denotes the equilibrium constant for the complex coming apart.

The data set concerns the target ExoS peptide (Pseudomonas aeruginosa) (UniProt G3XDA1). In words: ITC. (ITC needs no label: the signal is the heat of the interaction.)
Sequence of UniProt G3XDA1 (G3XDA1 whole entry): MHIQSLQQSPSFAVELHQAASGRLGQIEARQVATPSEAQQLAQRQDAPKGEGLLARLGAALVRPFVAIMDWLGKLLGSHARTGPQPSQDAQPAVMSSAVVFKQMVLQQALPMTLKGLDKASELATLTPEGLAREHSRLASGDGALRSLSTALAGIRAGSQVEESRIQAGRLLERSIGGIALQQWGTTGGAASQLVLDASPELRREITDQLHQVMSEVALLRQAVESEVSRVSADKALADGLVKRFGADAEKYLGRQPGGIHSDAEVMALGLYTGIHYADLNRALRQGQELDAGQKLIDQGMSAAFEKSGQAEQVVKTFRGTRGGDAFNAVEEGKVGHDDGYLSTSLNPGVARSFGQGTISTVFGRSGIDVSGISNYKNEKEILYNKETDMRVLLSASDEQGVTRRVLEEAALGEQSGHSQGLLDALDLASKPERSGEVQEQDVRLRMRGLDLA

With 14-3-3 sigma (from UniProt P31947), the Kd was 45.6 µM.
